Assay results: patent US20250326791A1 (published 2025)
Bridges are numbered along the chain shown (N, C = ends). Where no end group is shown, it is not given here. [ ]: non-standard residue; d: D form.

What was measured:
Test in all cases: protein binding radioassay
δ opioid receptor (DOR) = molecular target: δ opioid receptor (DOR)
µ opioid receptor (MOR) = molecular target: µ opioid receptor (MOR)
κ opioid receptor (KOR) = molecular target: κ opioid receptor (KOR)

Binder	Kd (δ opioid receptor (DOR)) [nM]	Kd (µ opioid receptor (MOR)) [nM]	Kd (κ opioid receptor (KOR)) [nM]
YASPKCFRY[dA]GF[dL]LACT (disulfide 6-16) [DADLE-OL]	64	3540	> 10000
Y[dA]GF[dL]KCFRYPNGVLACT (disulfide 7-17, 18 residues) [DADLE-OL II]	275	123	1080
